The record followed here is article PMC6344896, “HuR biological function involves RRM3-mediated dimerization and RNA binding by all three RRMs”.

In one data set the target is HuR F279A (human, UniProt Q15717 1-326, F279A). In words: ITC; n=1.0; ITC: 50 mM sodium phosphate pH 7.0, 200 mM NaCl, 2 mM beta-mercaptoethanol, 298 K; NMR: 20 mM sodium phosphate pH 7.0, 200 mM NaCl, 5 mM DTT, 1 mM EDTA, 298 K. To be noted: protein: recombinant; tags: untagged (tag cleaved).
The target in the next data set is HuR W261E (human, UniProt Q15717 1-326, W261E). Description: ITC; n=0.9; ITC: 50 mM sodium phosphate pH 7.0, 200 mM NaCl, 2 mM beta-mercaptoethanol, 298 K; NMR: 20 mM sodium phosphate pH 7.0, 200 mM NaCl, 5 mM DTT, 1 mM EDTA, 298 K. To be noted: protein: recombinant; tags: untagged (tag cleaved).
Chain of HuR W261E (Q15717 whole entry W261E): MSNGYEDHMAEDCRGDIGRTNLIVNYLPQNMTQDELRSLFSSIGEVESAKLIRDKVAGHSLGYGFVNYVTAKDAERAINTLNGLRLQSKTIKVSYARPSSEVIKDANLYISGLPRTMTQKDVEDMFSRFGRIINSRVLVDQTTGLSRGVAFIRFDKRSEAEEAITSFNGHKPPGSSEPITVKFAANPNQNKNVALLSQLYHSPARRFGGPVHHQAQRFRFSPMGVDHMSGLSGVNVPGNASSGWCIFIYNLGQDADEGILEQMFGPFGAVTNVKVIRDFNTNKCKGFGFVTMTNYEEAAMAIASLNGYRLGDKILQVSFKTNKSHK
The next data set deals with HuR GGS (human, UniProt Q15717 1-185+=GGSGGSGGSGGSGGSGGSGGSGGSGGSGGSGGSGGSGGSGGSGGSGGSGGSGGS+240-326, internal_change). The data set is described as above. To be noted: protein: recombinant; tags: pETM11 His6, cleaved.
Chain of HuR GGS (Q15717 other isoform, or with tags, fused parts or gaps): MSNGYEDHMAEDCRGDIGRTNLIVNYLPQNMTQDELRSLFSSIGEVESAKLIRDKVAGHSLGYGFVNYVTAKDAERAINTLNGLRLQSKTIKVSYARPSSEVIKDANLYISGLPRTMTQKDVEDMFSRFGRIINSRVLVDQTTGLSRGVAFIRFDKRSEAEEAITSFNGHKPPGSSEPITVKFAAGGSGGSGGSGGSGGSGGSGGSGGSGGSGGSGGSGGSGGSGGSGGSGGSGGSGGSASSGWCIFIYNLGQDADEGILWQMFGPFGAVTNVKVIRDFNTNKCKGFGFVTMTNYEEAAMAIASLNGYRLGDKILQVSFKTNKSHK
The next data set concerns the target HuR F287A/F289A (human, UniProt Q15717 1-326, F287A;F289A). Description: ITC; n=0.7; ITC: 50 mM sodium phosphate pH 7.0, 200 mM NaCl, 2 mM beta-mercaptoethanol, 298 K; NMR: 20 mM sodium phosphate pH 7.0, 200 mM NaCl, 5 mM DTT, 1 mM EDTA, 298 K. To be noted: protein: recombinant; tags: untagged (tag cleaved).
Another data set deals with HuR WT (human, UniProt Q15717 1-326). The description is as above. To be noted: protein: recombinant; tags: untagged (His6-MBP cleaved).
Chain of HuR WT (Q15717 whole entry): as the sequence (Q15717 whole entry W261E) above, with E261W counted along it
The next data set deals with HuR F247A/Y249A (human, UniProt Q15717 1-326, F247A;Y249A). In words: ITC; n=0.8; ITC: 50 mM sodium phosphate pH 7.0, 200 mM NaCl, 2 mM beta-mercaptoethanol, 298 K; NMR: 20 mM sodium phosphate pH 7.0, 200 mM NaCl, 5 mM DTT, 1 mM EDTA, 298 K. To be noted: protein: recombinant; tags: untagged (tag cleaved).
Chain of HuR F247A/Y249A (Q15717 whole entry F247A/Y249A): as the sequence (Q15717 whole entry W261E) above, with F247A, Y249A, E261W counted along it
In data set [1] the target is T1, HuR RRM3 (human, UniProt Q15717 243-326). In words: ITC; 400 uM RNA into 20 uM RRM3; ITC: 50 mM sodium phosphate pH 7.0, 200 mM NaCl, 2 mM beta-mercaptoethanol, 298 K; NMR: 20 mM sodium phosphate pH 7.0, 200 mM NaCl, 5 mM DTT, 1 mM EDTA, 298 K. The following applies: protein: recombinant; tags: untagged (His6-GST cleaved with TEV).
T1 sequence (Q15717 243-326): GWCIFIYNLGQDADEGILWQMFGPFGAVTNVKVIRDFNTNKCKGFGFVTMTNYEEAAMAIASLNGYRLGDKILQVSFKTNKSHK
The target in data set [2] is T1, HuR RRM3. Description: ITC; n=0.8; ITC: 50 mM sodium phosphate pH 7.0, 200 mM NaCl, 2 mM beta-mercaptoethanol, 298 K; NMR: 20 mM sodium phosphate pH 7.0, 200 mM NaCl, 5 mM DTT, 1 mM EDTA, 298 K. The following applies: protein: recombinant; tags: untagged (His6-GST cleaved with TEV).
Data set [3] deals with T1, HuR RRM3. In words: NMR; changes comparable with U6; ITC: 50 mM sodium phosphate pH 7.0, 200 mM NaCl, 2 mM beta-mercaptoethanol, 298 K; NMR: 20 mM sodium phosphate pH 7.0, 200 mM NaCl, 5 mM DTT, 1 mM EDTA, 298 K. To be noted: protein: recombinant; tags: untagged (His6-GST cleaved with TEV).
For data set [4], the target named is T1, HuR RRM3. In words: ITC; ITC: 50 mM sodium phosphate pH 7.0, 200 mM NaCl, 2 mM beta-mercaptoethanol, 298 K; NMR: 20 mM sodium phosphate pH 7.0, 200 mM NaCl, 5 mM DTT, 1 mM EDTA, 298 K. To be noted: protein: recombinant; tags: untagged (His6-GST cleaved with TEV).
The target in data set [5] is T1, HuR RRM3. Description: NMR; 1:0.25 and 1:1.25; ITC: 50 mM sodium phosphate pH 7.0, 200 mM NaCl, 2 mM beta-mercaptoethanol, 298 K; NMR: 20 mM sodium phosphate pH 7.0, 200 mM NaCl, 5 mM DTT, 1 mM EDTA, 298 K. To be noted: protein: recombinant; tags: untagged (His6-GST cleaved with TEV).
Data set [6] deals with T1, HuR RRM3. Description: ITC; n=1.1; ITC: 50 mM sodium phosphate pH 7.0, 200 mM NaCl, 2 mM beta-mercaptoethanol, 298 K; NMR: 20 mM sodium phosphate pH 7.0, 200 mM NaCl, 5 mM DTT, 1 mM EDTA, 298 K. The following applies: protein: recombinant; tags: untagged (His6-GST cleaved with TEV).
The next data set addresses HuR RRM3 F247A/Y249A (human, UniProt Q15717 243-326, F247A;Y249A). Description: ITC; ITC: 50 mM sodium phosphate pH 7.0, 200 mM NaCl, 2 mM beta-mercaptoethanol, 298 K; NMR: 20 mM sodium phosphate pH 7.0, 200 mM NaCl, 5 mM DTT, 1 mM EDTA, 298 K. The following applies: protein: recombinant; tags: untagged (His6-GST cleaved).
The next data set has as its target HuR RRM3 F279A (human, UniProt Q15717 243-326, F279A). In words: ITC; n=0.6; ITC: 50 mM sodium phosphate pH 7.0, 200 mM NaCl, 2 mM beta-mercaptoethanol, 298 K; NMR: 20 mM sodium phosphate pH 7.0, 200 mM NaCl, 5 mM DTT, 1 mM EDTA, 298 K. The following applies: protein: recombinant; tags: untagged (His6-GST cleaved).
For data set [7], the target named is T1, HuR RRM3. Description: ITC; 400 uM RNA into 20 uM RRM3; n=0.6; ITC: 50 mM sodium phosphate pH 7.0, 200 mM NaCl, 2 mM beta-mercaptoethanol, 298 K; NMR: 20 mM sodium phosphate pH 7.0, 200 mM NaCl, 5 mM DTT, 1 mM EDTA, 298 K. To be noted: protein: recombinant; tags: untagged (His6-GST cleaved with TEV).

Chain of HuR F279A (Q15717 whole entry F279A): as the sequence (Q15717 whole entry W261E) above, with E261W, F279A counted along it
Chain of HuR RRM3 F247A/Y249A (Q15717 243-326 F247A/Y249A): as the sequence (Q15717 243-326) above, with F5A, Y7A counted along it
Chain of HuR RRM3 F279A (Q15717 243-326 F279A): as the sequence (Q15717 243-326) above, with F37A counted along it
Chain of HuR F287A/F289A (Q15717 whole entry F287A/F289A): as the sequence (Q15717 whole entry W261E) above, with E261W, F287A, F289A counted along it

B1: AU17 (ssRNA)
RNA: AUUUUUAUUUUAUUUUU
B1: the equilibrium dissociation constant (Kd) amounted to 0.0288 ± 0.0044 µM with HuR F279A; 0.041 ± 0.0048 µM with HuR W261E; 0.0336 ± 0.0027 µM with HuR GGS; 0.194 ± 0.0215 µM with HuR F287A/F289A; 0.04 ± 0.0082 µM with HuR WT; 0.351 ± 0.0199 µM with HuR F247A/Y249A.

B2: U5 (ssRNA)
RNA: UUUUU
Take B2: the Kd with HuR RRM3 [1] was 34 µM.

B3: AU6 (ssRNA)
RNA: UUUAUU
On to B3, for which the Kd with HuR RRM3 [2] worked out at 47 ± 3.6 µM.

B4: U9 (ssRNA)
RNA: UUUUUUUUU
On to B4, for which, in the data set with HuR RRM3 [3], the binding result is recorded as “binds”.

B5: AU6tnf (ssRNA)
RNA: UAUUUA
Consider B5, for which the equilibrium dissociation constant (Kd) with HuR RRM3 [4] amounted to 156 ± 32.8 µM.

B6: GC control (ssRNA)
RNA: GAGCAC
Consider B6, for which, in the data set with HuR RRM3 [5], the binding result is given as “no binding”.

B7: GU6 (ssRNA)
RNA: UUUGUU
As for B7, the Kd with HuR RRM3 [6] was found to be 100 ± 18.2 µM.

B8: U6 (ssRNA)
RNA: UUUUUU
Turning to B8, the binding result with HuR RRM3 F247A/Y249A was “no binding”. Also, the figures for the Kd in the data set with HuR RRM3 [2], in the data set with HuR RRM3 F279A and with HuR RRM3 [7] were 19.3 ± 0.3 µM, 44.6 ± 3.5 µM and 15.8 ± 1.5 µM, respectively.
